Experimental data as given in article PMC10747088, “Self-Penetrating Oligonucleotide Derivatives: Features of Self-Assembly and Interactions with Serum and Intracellular Proteins”.

Biological target: human serum albumin (HSA) (Homo sapiens, UniProt P02768 25-609)
Assay: fluorescence titration (FAM); PBS; 10 uM oligomer; HSA Kd: 10 uM oligomer, PBS, 30 min, 25 C (Methods) or 37 C (Figure S7); HSA EMSA: TA/TAM buffer, 1 h, native 8% PAAG at 37 C; Ku/PARP1 EMSA: 50 mM Tris-HCl pH
Details: protein: commercial, label: 5'-FAM, single strand, micelles

human serum albumin (HSA), sequence (P02768 25-609): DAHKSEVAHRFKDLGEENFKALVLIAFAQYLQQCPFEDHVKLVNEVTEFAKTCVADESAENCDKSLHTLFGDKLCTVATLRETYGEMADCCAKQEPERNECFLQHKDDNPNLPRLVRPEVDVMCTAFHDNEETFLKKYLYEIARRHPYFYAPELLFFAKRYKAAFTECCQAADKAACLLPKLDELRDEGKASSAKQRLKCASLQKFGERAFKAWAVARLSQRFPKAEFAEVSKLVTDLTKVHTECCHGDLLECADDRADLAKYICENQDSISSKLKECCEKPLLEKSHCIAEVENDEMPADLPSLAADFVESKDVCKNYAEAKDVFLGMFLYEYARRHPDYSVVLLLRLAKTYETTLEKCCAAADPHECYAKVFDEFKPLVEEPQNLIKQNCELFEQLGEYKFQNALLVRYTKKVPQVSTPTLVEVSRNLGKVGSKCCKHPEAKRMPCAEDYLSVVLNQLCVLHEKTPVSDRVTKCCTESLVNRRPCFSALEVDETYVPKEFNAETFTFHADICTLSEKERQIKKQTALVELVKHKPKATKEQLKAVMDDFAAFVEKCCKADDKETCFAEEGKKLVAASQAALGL

B1: FAM-TZD16 (FAM-TZ16) (ssDNA)
DNA: CTGACTATGAAGTATT
modifications: triazinyl phosphoramidate with two dodecyl groups at the last internucleotide phosphate (T15*T16)
Kd: 1500 ± 100 nM

B2: FAM-TZD17 (FAM-TZ17) (ssDNA)
DNA: AGTCTCGACTTGCTATT
modifications: triazinyl phosphoramidate with two dodecyl groups at the last internucleotide phosphate (T16*T17)
Kd (can form weak hairpin or self-dimers): 1200 ± 200 nM
